Reference: publication PMC8024323, “Drosophila TNFRs Grindelwald and Wengen bind Eiger with different affinities and promote distinct cellular functions” (Nature Communications, 2021)

B1: Grnd^30–97 (extracellular domain of Grindelwald) [Drosophila melanogaster] / Egr^146–409 (extracellular portion of Eiger, His6-tagged) [Drosophila melanogaster] (parent complex)
chain 1: GESRDCHGTICHPVNEFCYVATERCHPCIEVCNNQTHNYDAFLCAKECSAYKTFEPLKAEMLDIQNTQ
chain 2: GADYEDYTDMLNKLNNAHTGTTPTSETTAEGEGETDSASSASNDDNVFDDFTSYNAHKKKQERKSRSIADVRNEEQNIQGNHTELQEKSSNEATSKESPAPLHHRRRMHSRHRHLLVRKARSEDSRPAAHFHLSSRRRHQGSMGYHGDMYIGNDNERNSYQGHFQTRDGVLTVTNTGLYYVYAQICYNNSHDQNGFIVFQGDTPFLQCLNTVPTNMPHKVHTCHTSGLIHLERNERIHLKDIHNDRNAVLREGNNRSYFGIFKV

Variants of: B1
Experiment: ITC; parent: 30.8 nM

Variant	Kd [µM]
chain 1 GESRDCHGTICHPVNEFCYVATERCHPCIEVCNNQTANYDAFLCAKECSAYKTFEPLKAEMLDIQNTQ	4.8
chain 1 GESRDCHGTICHPVNEFCYVATARCHPCIEVCNNQTHNYDAFLCAKECSAYKTFEPLKAEMLDIQNTQ	1.3
chain 1 GESRDCHGTICHPVNEFCYVATERCHPCIEVCNNQTHAYDAFLCAKECSAYKTFEPLKAEMLDIQNTQ	4.5
